# Reference: patent US20240391954A1, “MC4R AGONIST PEPTIDES” (The Regents of the University of Michigan, priority 2021, published 2024)
# Where two headings read alike, the source gives them in different places. Starred links: 1 amine or outer side, 2 acyl side, 3 side chain; linkers in the order of their positions; H or OH if unused. Positions of bridges follow the written chain, without caps; N, C: chain ends. Non-standard residues stand in square brackets, D forms with d. Residues, ends and D or L forms follow the SMILES beside them. dTyr(O-Me) = O-methyl-D-tyrosine, COc1ccc(C[C@@H](N[*:1])C(=O)[*:2])cc1; dPhe(4-Br) = N[C@H](Cc1ccc(Br)cc1)C(=O)O; dPhe(4-F) = N[C@H](Cc1ccc(F)cc1)C(=O)O; Nle = CCCC[C@H](N)C(=O)O; Aib = CC(C)(N)C(=O)O
# B1: CTX-1238 (peptide)
# peptide: Ac-RC[dA]R[dTyr(O-Me)]R[dW]C-NH2
# modifications: disulfide 2-8
# SMILES: COc1ccc(C[C@H]2NC(=O)[C@H](CCCNC(=N)N)NC(=O)[C@@H](C)NC(=O)[C@@H](NC(=O)[C@H](CCCNC(=N)N)NC(C)=O)CSSC[C@@H](C(N)=O)NC(=O)[C@@H](Cc3c[nH]c4ccccc34)NC(=O)[C@H](CCCNC(=N)N)NC2=O)cc1
# B2: CTX-1227 (peptide)
# peptide: Ac-R[Nle]CH[dF]RWC-NH2
# modifications: disulfide 3-8
# SMILES: CCCC[C@H](NC(=O)[C@H](CCCNC(=N)N)NC(C)=O)C(=O)N[C@H]1CSSC[C@@H](C(N)=O)NC(=O)[C@H](Cc2c[nH]c3ccccc23)NC(=O)[C@H](CCCNC(=N)N)NC(=O)[C@@H](Cc2ccccc2)NC(=O)[C@H](Cc2c[nH]cn2)NC1=O
# B3: CTX-1246 (peptide)
# peptide: Ac-RC[Aib]R[dPhe(4-Br)]R[dW]C-NH2
# modifications: disulfide 2-8
# SMILES: CC(=O)N[C@@H](CCCNC(=N)N)C(=O)N[C@H]1CSSC[C@@H](C(N)=O)NC(=O)[C@@H](Cc2c[nH]c3ccccc23)NC(=O)[C@H](CCCNC(=N)N)NC(=O)[C@@H](Cc2ccc(Br)cc2)NC(=O)[C@H](CCCNC(=N)N)NC(=O)C(C)(C)NC1=O
# B4: CTX-1211 (peptide)
# peptide: Ac-RC[dA]R[dF]RWC-NH2
# modifications: disulfide 2-8
# SMILES: CC(=O)N[C@@H](CCCNC(=N)N)C(=O)N[C@H]1CSSC[C@@H](C(N)=O)NC(=O)[C@H](Cc2c[nH]c3ccccc23)NC(=O)[C@H](CCCNC(=N)N)NC(=O)[C@@H](Cc2ccccc2)NC(=O)[C@H](CCCNC(=N)N)NC(=O)[C@@H](C)NC1=O
# B5: CTX-1258 (peptide)
# peptide: Ac-RC[dA]R[dPhe(4-Br)]RFC-NH2
# modifications: disulfide 2-8
# SMILES: CC(=O)N[C@@H](CCCNC(=N)N)C(=O)N[C@H]1CSSC[C@@H](C(N)=O)NC(=O)[C@H](Cc2ccccc2)NC(=O)[C@H](CCCNC(=N)N)NC(=O)[C@@H](Cc2ccc(Br)cc2)NC(=O)[C@H](CCCNC(=N)N)NC(=O)[C@@H](C)NC1=O
# Key:
# human MC3R [1] = molecular target: T1, human MC3R (Homo sapiens, UniProt P41968); assay: split-luciferase cAMP sensor assay, antagonist mode in presence of EC90 α-MSH (measurement window 2), hMC3R; format: cell-based; details: agonist curves and antagonist curves in presence of EC80 to EC90 α-MSH
# T1 construct: expressed in transfected cells; host or cells: HEK-293 cells stably expressing the GScAMP22F split-luciferase cAMP sensor (parent reporter line from Promega); MC3R clone generated in-house, G418 selection
# Procedure: FIG. 2. […] Concentration-response agonist curves for CTX-2205 and CTX-1214 at the human MC3R (blue) and human MC4R (red) were determined by a split-luciferase cAMP sensor dynamic assay in HEK-293 cells stably expressing the hMC3R or hMC4R and the GScAMP22F CAMP sensor. The antagonist curves were determined in the presence of an EC80 to EC90 concentration of α-MSH. Each data point represents the mean±SEM of two experiments with three replicates each per experiment. Data is normalized to the ECmax of α-MSH.
# The assay for the determination of the cAMP response in live cells was described previously. (Yu et al., 2020, Science 368, 428-433; incorporated by reference in its entirety). […] Intracellular cAMP levels were measured using an FDSS 7000EX Functional Drug Screening System (Hamamatsu Photonics, Hamamatsu, Japan) in the Center for Chemical Genomics at the Life Sciences Institute. This instrument allowed the in-line addition of test-peptides and receptor agonists while simultaneously acquiring the luminescence signal from live cells. […]
# With this set up it was possible to evaluate the direct effect of the test-peptides on the MC3R and MC4R cell lines during measurement window 1, while the antagonist profile in the presence of EC90 α-MSH was determined on measurement window 2. […]
# human MC4R = molecular target: T2, human MC4R (Homo sapiens, UniProt P32245); assay: split-luciferase cAMP sensor assay, agonist mode (measurement window 1), hMC4R; format: cell-based; details: for Emax: read-out: MC4R cAMP % max activation
# T2 construct: host or cells: HEK-293 cells stably expressing the GScAMP22F split-luciferase cAMP sensor and hMC4R, G418 selection
# Summary of the method: (§1)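 Live stable cell lines carrying receptor plus GloSensor cAMP22f split-luciferase, loaded with 4% D-luciferin in serum-free medium (~1% serum estimated during assay). Luminescence recorded during in-line peptide addition; direct agonist effect read in window 1, with 20 μM forskolin as normalization reference. EC50 from four-parameter sigmoid fit.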
# human MC3R [2] = molecular target: T1, human MC3R; assay: split-luciferase cAMP sensor assay, agonist mode (measurement window 1), hMC3R; format: cell-based; details: agonist mode, hMC3R stable cell line; for Emax: read-out: MC3R cAMP % max activation
# Summary of the method: as §1
# plasma protein [3] = assay: plasma ultrafiltration (Centrifree), LC-MS/MS; peptide 1.0 uM
# plasma protein [4] = assay: plasma ultrafiltration (Centrifree), LC-MS/MS; peptide 10.0 uM
# human MC4R receptor [5] = molecular target: T3, human MC4R receptor (human, UniProt P32245 1-332); assay: cell-based or functional assay
# plasma protein [6] = assay: plasma ultrafiltration (Centrifree), LC-MS/MS; peptide 0.1 uM
# human MC4R receptor [7] = molecular target: T3, human MC4R receptor; assay: cell-based or functional assay; remark: listed apart in the source
# human MC3R [8] = molecular target: T4, human MC3R (human, UniProt P41968 1-323); assay: cell-based or functional assay
# human MC4R receptor [9] = molecular target: T3, human MC4R receptor; assay: cell-based or functional assay; remark: listed apart in the source
# human MC4R receptor [10] = molecular target: T3, human MC4R receptor; assay: cell-based or functional assay; remark: listed apart in the source
# human MC3R [11] = molecular target: T4, human MC3R; assay: cell-based or functional assay; remark: listed apart in the source
# human MC4R receptor [12] = molecular target: T3, human MC4R receptor; assay: cell-based or functional assay; remark: listed apart in the source
# [13] = agonist mode, hMC4R stable cell line
# T4 sequence (P41968 whole entry): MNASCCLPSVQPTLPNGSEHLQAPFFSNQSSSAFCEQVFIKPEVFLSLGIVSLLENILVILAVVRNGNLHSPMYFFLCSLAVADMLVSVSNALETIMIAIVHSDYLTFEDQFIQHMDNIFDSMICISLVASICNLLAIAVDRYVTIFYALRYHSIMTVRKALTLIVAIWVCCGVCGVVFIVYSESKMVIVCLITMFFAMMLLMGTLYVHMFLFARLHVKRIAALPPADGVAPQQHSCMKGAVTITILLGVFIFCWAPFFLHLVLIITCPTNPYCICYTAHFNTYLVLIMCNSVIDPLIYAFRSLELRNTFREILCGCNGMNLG
# T1 sequence (P41968 whole entry): as above
# T3 sequence (P32245 whole entry): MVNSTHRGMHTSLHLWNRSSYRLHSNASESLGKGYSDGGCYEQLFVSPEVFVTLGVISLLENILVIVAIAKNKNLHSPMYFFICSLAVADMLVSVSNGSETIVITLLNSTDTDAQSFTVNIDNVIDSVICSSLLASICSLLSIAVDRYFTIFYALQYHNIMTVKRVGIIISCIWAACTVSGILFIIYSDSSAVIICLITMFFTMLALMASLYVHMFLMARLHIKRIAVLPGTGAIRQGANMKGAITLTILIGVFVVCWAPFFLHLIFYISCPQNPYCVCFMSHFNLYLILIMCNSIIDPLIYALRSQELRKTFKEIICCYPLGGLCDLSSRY
# T2 sequence (P32245 whole entry): as above
Molecule,Protein Binding (%) (plasma protein [3]),Protein Binding (%) (plasma protein [4]),Protein Binding (%) (plasma protein [6]),MC4R selectivity vs MC1R (human MC4R receptor [7]),MC4R selectivity vs MC3R (human MC4R receptor [7]),% max activation (human MC3R [8]) [%],cAMP EC50 (human MC3R [8]) [nM],% max activation (human MC4R receptor [9]) [%],cAMP EC50 (human MC4R receptor [9]) [nM],also measured
"CC(=O)N[C@@H](CCCNC(=N)N)C(=O)N[C@H]1CSSC[C@@H](C(N)=O)NC(=O)[C@@H](Cc2c[nH]c3ccccc23)NC(=O)[C@H](CCCNC(=N)N)NC(=O)[C@@H](Cc2ccc(Br)cc2)NC(=O)[C@H](CCCNC(=N)N)NC(=O)[C@@H](C)NC1=O [CTX-1214, Arg-cyclo(Cys-D-Ala-Arg-D-Phe(4-Br)-Arg-D-Trp-Cys)] (Ac-RC[dA]R[dPhe(4-Br)]R[dW]C-NH2; disulfide 2-8 (inferred))",,,,,,,,,,"pharmacological properties at hMC4R and hMC3R (human MC3R [1]): dual MC4R agonist, MC3R antagonist properties; MC4R selectivity vs MC3R (human MC4R): 0.2; Emax (human MC4R; [13]): 74%; EC50 (human MC4R; agonist mode, hMC4R stable cell line, read-out: MC4R cAMP EC50): 2.6 nM; Emax (human MC3R [2]): 15%; EC50 (human MC3R [2]; read-out: MC3R cAMP EC50): 4.1 nM"
"CC(=O)N[C@@H](CCCNC(=N)N)C(=O)N[C@H]1CSSC[C@@H](C(N)=O)NC(=O)[C@H](Cc2c[nH]c3ccccc23)NC(=O)[C@H](CCCNC(=N)N)NC(=O)[C@@H](Cc2ccc(Br)cc2)NC(=O)[C@H](CCCNC(=N)N)NC(=O)[C@@H](C)NC1=O [CTX-2205, Arg-cyclo(Cys-D-Ala-Arg-D-Phe(4-Br)-Arg-Trp-Cys)] (Ac-RC[dA]R[dPhe(4-Br)]RWC-NH2; disulfide 2-8)",,,,,,,,,,"pharmacological properties at hMC4R and hMC3R (human MC3R [1]): dual MC4R agonist, MC3R antagonist properties; MC4R selectivity vs MC1R (human MC4R): 0.2; MC4R selectivity vs MC3R (human MC4R): 2.12; Emax (human MC4R; [13]): 88%; Emax (human MC3R [2]): 13%"
CTX-1200 (setmelanotide) (peptide),57,61,43,,,,,,,MC4R selectivity vs MC1R (human MC4R receptor [5]): 0.69; MC4R selectivity vs MC3R (human MC4R receptor [5]): 4.09
B1,47,41,53,0.44,0.49,21,3,79,6.2,
B2,47,54,50,,,,,,,MC4R selectivity vs MC1R (human MC4R receptor [10]): 0.92; MC4R selectivity vs MC3R (human MC4R receptor [10]): 11; % max activation (human MC3R [11]): 96%; cAMP EC50 (human MC3R [11]): 2.8 nM; % max activation (human MC4R receptor [12]): 103%; cAMP EC50 (human MC4R receptor [12]): 0.3 nM
B3,44,43,73,,,21,,,,
Ac-RC[dA]R[dPhe(4-F)]R[dW]C-NH2 (disulfide 2-8) [CTX-1236],49,51,45,2.01,1.36,66,2.6,97,1.9,
B4,63,61,51,,,,,,,MC4R selectivity vs MC1R (human MC4R receptor [10]): 3.12; MC4R selectivity vs MC3R (human MC4R receptor [10]): 5.49; % max activation (human MC3R [11]): 91%; cAMP EC50 (human MC3R [11]): 2.1 nM; % max activation (human MC4R receptor [12]): 96%; cAMP EC50 (human MC4R receptor [12]): 0.38 nM
B5,50,50,47,0.53,3.04,36,7.4,92,2.4,
